According to patent publication US12269859B2, “Synthetic immune receptors and methods of use thereof” (Angeles Therapeutics, Inc., priority 2016, dated 2025):

B1: 030217-J05 (protein)
chain: MALPVTALLLPLALLLHAARPDEIVLTQSPATLSLSPGERATLSCSASSSVSYMHWYQQKPGQAPRLLIYDTSKLASGIPARFSGSGSGTDFTLTISSLEPEDVAVYYCFQGSVYPFTFGQGTKLEIKRGGGGSGGGGSGGGGSQVQLQESGPGLVKPSQTLSLTCTVSGGSISTSGMGVGWIRQHPGKGLEWIGHIWWDDDKRYNPALKSRVTISVDTSKNQFSLKLSSVTAADTAVYYCARMELWSYYFDYWGQGTLVTVSSLEGKPIPNPLLGLDSTGSGEDLKNVFPPEVAVFEPSKAEIAHTQKATLVCLATGFYPDHVELSWWVNGKEVHSGVCTDPQPLKEQPALNDSRYCLSSRLRVSATFWQNPRNHFRCQVQFYGLSENDEWTQDRAKPVTQIVSAEAWGRADCGITSASYHQGVLSATILYEILLGKATLYAVLVSALVLMAMVKRKDSRGRAKRSGSGATNFSLLKQAGDVEENPGPTSMALPVTALLLPLALLLHAARPDIQMTQSPASLSASVGETVTIICRASVNIYSYLAWYQQKQGKSPQLLVYNAKILAEGVPSRFSGSGSGTQFSLKINSLQPEDFGSYYCQHHYGTFTFGSGTKLEIKRGGGGSGGGGSGGGGSQVQLKESGPGLVAPSQSLSITCTISGFSLTSYGVHWVRQPPGKGLEWLVVIWSDGSTTYNSALKSRLSISKDNSKSQVFLKMNSLQTDDTAIYYCASHYGSTLAFASWGHGTLVTVSAATREQKLISEEDGSGIQNPDPAVYQLRDSKSSDKSVCLFTDFDSQTNVSQSKDSDVYITDKCVLDMRSMDFKSNSAVAWSNKSDFACANAFNNSIIPEDTFFPSSDVPCDVKLVEKSFETDTNLNFQNLSVIGFRILLLKVAGFNLLMTLRLWSSRAKRSGSGVKQTLNFDLLKLAGDVESNPGPSRGHMTEYKPTVRLATRDDVPRAVRTLAAAFADYPATRHTVDPDRHIERVTELQELFLTRVGLDIGKVWVADDGAAVAVWTTPESVEAGAVFAEIGPRMAELSGSRLAAQQQMEGLLAPHRPKEPAWFLATVGVSPDHQGKGLGSAVVLPGVEAAERAGVPAFLETSAPRNLPFYERLGFTVTADVEVPEGPRTWCMTRKPGA
B2: 030217-K05 (protein)
chain: MALPVTALLLPLALLLHAARPDEIVLTQSPATLSLSPGERATLSCSASSSVSYMHWYQQKPGQAPRLLIYDTSKLASGIPARFSGSGSGTDFTLTISSLEPEDVAVYYCFQGSVYPFTFGQGTKLEIKRGGGGSGGGGSGGGGSQVQLQESGPGLVKPSQTLSLTCTVSGGSISTSGMGVGWIRQHPGKGLEWIGHIWWDDDKRYNPALKSRVTISVDTSKNQFSLKLSSVTAADTAVYYCARMELWSYYFDYWGQGTLVTVSSLEGKPIPNPLLGLDSTGSGEDLKNVFPPEVAVFEPSKAEIAHTQKATLVCLATGFYPDHVELSWWVNGKEVHSGVCTDPQPLKEQPALNDSRYCLSSRLRVSATFWQNPRNHFRCQVQFYGLSENDEWTQDRAKPVTQIVSAEAWGRADCGITSASYHQGVLSATILYEILLGKATLYAVLVSALVLMAMVKRKDSRGRAKRSGSGATNFSLLKQAGDVEENPGPTSMALPVTALLLPLALLLHAARPDIVMTQSHKFMSTSVGDRVSVTCKASQNVGNNVAWYQQKPGQSPKVLIYSASYRYSGVPDRFTGSGSGTDFTLTISNVQSEDLAEYFCQQYNTYPFTFGSGTKLEIKGGGGSGGGGSGGGGSEVQLEESGGGLVQPGGSMKLSCVASGFTFSNYWMNWVRQSPEKGLEWVAEIRFKSHNYATHFAESVKGRFTISRDDSKSSVYLQMNNLRAEDTGIYYCTRRIGNSDYDWWYFDVWGAGTSVTVSSASTREQKLISEEDGSGIQNPDPAVYQLRDSKSSDKSVCLFTDFDSQTNVSQSKDSDVYITDKCVLDMRSMDFKSNSAVAWSNKSDFACANAFNNSIIPEDTFFPSSDVPCDVKLVEKSFETDTNLNFQNLSVIGFRILLLKVAGFNLLMTLRLWSSRAKRSGSGVKQTLNFDLLKLAGDVESNPGPSRGHMTEYKPTVRLATRDDVPRAVRTLAAAFADYPATRHTVDPDRHIERVTELQELFLTRVGLDIGKVWVADDGAAVAVWTTPESVEAGAVFAEIGPRMAELSGSRLAAQQQMEGLLAPHRPKEPAWFLATVGVSPDHQGKGLGSAVVLPGVEAAERAGVPAFLETSAPRNLPFYERLGFTVTADVEVPEGPRTWCMTRKPGA
B3: 040716-G02 (protein)
chain: MALPVTALLLPLALLLHAARPDEIVLTQSPATLSLSPGERATLSCSASSSVSYMHWYQQKPGQAPRLLIYDTSKLASGIPARFSGSGSGTDFTLTISSLEPEDVAVYYCFQGSVYPFTFGQGTKLEIKRGGGGSGGGGSGGGGSQVQLQESGPGLVKPSQTLSLTCTVSGGSISTSGMGVGWIRQHPGKGLEWIGHIWWDDDKRYNPALKSRVTISVDTSKNQFSLKLSSVTAADTAVYYCARMELWSYYFDYWGQGTLVTVSSLEGKPIPNPLLGLDSTGSGEDLKNVFPPEVAVFEPSKAEIAHTQKATLVCLATGFYPDHVELSWWVNGKEVHSGVCTDPQPLKEQPALNDSRYCLSSRLRVSATFWQNPRNHFRCQVQFYGLSENDEWTQDRAKPVTQIVSAEAWGRADCGITSASYHQGVLSATILYEILLGKATLYAVLVSALVLMAMVKRKDSRGRAKRSGSGATNFSLLKQAGDVEENPGPTSTMALPVTALLLPLALLLHAARPDTIVLTQSPASLAVSLGQRATISCRASESVDSYGNSFMHWYQQKPGQPPKLLIYLASNLESGVPARFSGSGSRTDFTLTIDPVEADDAATYYCQQNNYDPWTFGGGTKLEIKGGGGSGGGGSGGGGSEVQLQQSGPELVKPGASVKMSCKASGYTFTSYVMHWVKQKPGQGLEWIGYINPYNDGTKYNEKFKGKATLTSDTSSSTAYMELNSLTSEDSAVYFCARPIYFDNDYFDYWGQGTTLKVSSTREQKLISEEDGSGIQNPDPAVYQLRDSKSSDKSVCLFTDFDSQTNVSQSKDSDVYITDKCVLDMRSMDFKSNSAVAWSNKSDFACANAFNNSIIPEDTFFPSSDVPCDVKLVEKSFETDTNLNFQNLSVIGFRILLLKVAGFNLLMTLRLWSSRAKRSGSGVKQTLNFDLLKLAGDVESNPGPSRGHMTEYKPTVRLATRDDVPRAVRTLAAAFADYPATRHTVDPDRHIERVTELQELFLTRVGLDIGKVWVADDGAAVAVWTTPESVEAGAVFAEIGPRMAELSGSRLAAQQQMEGLLAPHRPKEPAWFLATVGVSPDHQGKGLGSAVVLPGVEAAERAGVPAFLETSAPRNLPFYERLGFTVTADVEVPEGPRTWCMTRKPGA
modifications: Synthetic polynucleotide encoding a SIR
B4: 041216 G04 (protein)
chain: MALPVTALLLPLALLLHAARPDEIVLTQSPATLSLSPGERATLSCSASSSVSYMHWYQQKPGQAPRLLIYDTSKLASGIPARFSGSGSGTDFTLTISSLEPEDVAVYYCFQGSVYPFTFGQGTKLEIKRGGGGSGGGGSGGGGSQVQLQESGPGLVKPSQTLSLTCTVSGGSISTSGMGVGWIRQHPGKGLEWIGHIWWDDDKRYNPALKSRVTISVDTSKNQFSLKLSSVTAADTAVYYCARMELWSYYFDYWGQGTLVTVSSLEGKPIPNPLLGLDSTGSGEDLKNVFPPEVAVFEPSKAEIAHTQKATLVCLATGFYPDHVELSWWVNGKEVHSGVCTDPQPLKEQPALNDSRYCLSSRLRVSATFWQNPRNHFRCQVQFYGLSENDEWTQDRAKPVTQIVSAEAWGRADCGITSASYHQGVLSATILYEILLGKATLYAVLVSALVLMAMVKRKDSRGRAKRSGSGATNFSLLKQAGDVEENPGPTSMDWIWRILFLVGAATGAHSFEVQLVESGGGLVQAGGSLRLSCAASGSIFSGNVMGWYRRQAPGKEREWVAAIASGGSIYYRDSVKGRFTISRDNAKNTVYLQMNSLKPEDTAVYYCNSHPPTLPYWGLGTQVTVSSTREQKLISEEDGSGIQNPDPAVYQLRDSKSSDKSVCLFTDFDSQTNVSQSKDSDVYITDKCVLDMRSMDFKSNSAVAWSNKSDFACANAFNNSIIPEDTFFPSSDVPCDVKLVEKSFETDTNLNFQNLSVIGFRILLLKVAGFNLLMTLRLWSSRAKRSGSGVKQTLNFDLLKLAGDVESNPGPSRGHMTEYKPTVRLATRDDVPRAVRTLAAAFADYPATRHTVDPDRHIERVTELQELFLTRVGLDIGKVWVADDGAAVAVWTTPESVEAGAVFAEIGPRMAELSGSRLAAQQQMEGLLAPHRPKEPAWFLATVGVSPDHQGKGLGSAVVLPGVEAAERAGVPAFLETSAPRNLPFYERLGFTVTADVEVPEGPRTWCMTRKPGA
modifications: Synthetic polynucleotide encoding a SIR
B5: 040716-F05 (protein)
chain: MALPVTALLLPLALLLHAARPDEIVLTQSPATLSLSPGERATLSCSASSSVSYMHWYQQKPGQAPRLLIYDTSKLASGIPARFSGSGSGTDFTLTISSLEPEDVAVYYCFQGSVYPFTFGQGTKLEIKRGGGGSGGGGSGGGGSQVQLQESGPGLVKPSQTLSLTCTVSGGSISTSGMGVGWIRQHPGKGLEWIGHIWWDDDKRYNPALKSRVTISVDTSKNQFSLKLSSVTAADTAVYYCARMELWSYYFDYWGQGTLVTVSSLEGKPIPNPLLGLDSTGSGEDLKNVFPPEVAVFEPSKAEIAHTQKATLVCLATGFYPDHVELSWWVNGKEVHSGVCTDPQPLKEQPALNDSRYCLSSRLRVSATFWQNPRNHFRCQVQFYGLSENDEWTQDRAKPVTQIVSAEAWGRADCGITSASYHQGVLSATILYEILLGKATLYAVLVSALVLMAMVKRKDSRGRAKRSGSGATNFSLLKQAGDVEENPGPTSTMALPVTALLLPLALLLHAARPDIQMTQSPSSLSASLGERVSLTCRATQELSGYLSWLQQKPDGTIKRLIYAASTLDSGVPKRFSGNRSGSDYSLTISSLESEDFADYYCLQYAIYPYTFGGGTKLEIKGGGGSGGGGSGGGGSEVQLQQSGPELVKPGASVKMSCKASGYTFTSYFIHWVKQKPGQGLEWIGFINPYNDGSKYNEKFKGKATLTSDKSSSTAYMELSSLTSEDSAVYYCTRDDGYYGYAMDYWGQGTSVTVSSTREQKLISEEDGSGIQNPDPAVYQLRDSKSSDKSVCLFTDFDSQTNVSQSKDSDVYITDKCVLDMRSMDFKSNSAVAWSNKSDFACANAFNNSIIPEDTFFPSSDVPCDVKLVEKSFETDTNLNFQNLSVIGFRILLLKVAGFNLLMTLRLWSSRAKRSGSGVKQTLNFDLLKLAGDVESNPGPSRGHMTEYKPTVRLATRDDVPRAVRTLAAAFADYPATRHTVDPDRHIERVTELQELFLTRVGLDIGKVWVADDGAAVAVWTTPESVEAGAVFAEIGPRMAELSGSRLAAQQQMEGLLAPHRPKEPAWFLATVGVSPDHQGKGLGSAVVLPGVEAAERAGVPAFLETSAPRNLPFYERLGFTVTADVEVPEGPRTWCMTRKPGA
modifications: Synthetic polynucleotide encoding a SIR

Tested on: target antigen-expressing cell line
Assay: Jurkat NFAT-GFP assay, coculture with target cell lines expressing the respective target antigen (summary Table 10A)
Assay type: cell-based, human
Parameters: key: The signs +/−, +, 2+ etc. after the name of the cell lines indicate the relative degree of positivity on the Jurkat-NFAT-GFP assay as measured by the % GFP positive cells; +: relative degree of positivity on the Jurkat-NFAT-GFP assay as measured by the % GFP positive cells; 2+: relative degree of positivity on the Jurkat-NFAT-GFP assay as measured by the % GFP positive cells
Conditions: relative % GFP positive cells; for NFAT-GFP ASSAY Positive Cell lines: NALM6: SIR-expressing Jurkat-NFAT-GFP cells cocultured with NALM6; for NFAT-GFP ASSAY Positive Cell lines: RAJI: SIR-expressing Jurkat-NFAT-GFP cells cocultured with RAJI
Method in brief: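 Readout is % GFP+ cells by FACS, graded +/− to 2+ relative to parental reporter cells. Jurkat-NFAT-GFP cells stably transduced with SIR constructs (puromycin-selected) were mixed with target-antigen-expressing cell lines at roughly 1:2 effector:target and cocultured ~4–18 h.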

| Molecule | NFAT-GFP ASSAY Positive Cell lines: NALM6 | NFAT-GFP ASSAY Positive Cell lines: RAJI |
| --- | --- | --- |
| B1 | (+/−) | RAJI (2+), NALM6 |
| B2 | (+) | – |
| B3 | – | RAJI (+/−) |
| B4 | – | RAJI (+/−) |
| B5 | – | RAJI (+/−) |
